Test [1] deals with T1, human PSMA-Fc (human, UniProt Q04609 44-750).
T1 construct: also called Human PSMA-Fc fusion
The test can be described thus: Octet.

For test [2], the target named is T1, human PSMA-Fc. The test can be described thus: Octet. The source holds these as a separate data set. In general terms: Biolayer interferometry detects binding as a change in optical thickness at a sensor tip.
In test [3] the target is T1, human PSMA-Fc. Description: Octet, PSMA-Fc. As for the experimental part:
Binding affinity of select PSMA PTE variants was tested by Octet.

For test [4], the target named is T2, human PSMA (human, UniProt Q04609 44-750, limits assumed).
T2 construct: also called huPSMA; hPSMA
The test can be described thus: binding kinetics, uTCE.

Test [5] concerns the target T2, human PSMA. The test can be described thus: Octet.
The target in test [6] is T3, cynomolgus monkey PSMA (cynomolgus monkey, UniProt A0A2K5VNZ0 44-750).
T3 construct: also called cyPSMA; cyno PSMA
Description: Octet.

The target of test [7] is T4, human CD3 epsilon (human, UniProt P07766 23-126, limits assumed).
T4 construct: also called huCD3e
The test can be described thus: Octet.

The target in test [8] is T5, cynomolgus monkey CD3 epsilon (cynomolgus monkey, UniProt Q95LI5 22-117, limits assumed).
T5 construct: also called cyCD3e; cyno CD3
T5 sequence (looked up): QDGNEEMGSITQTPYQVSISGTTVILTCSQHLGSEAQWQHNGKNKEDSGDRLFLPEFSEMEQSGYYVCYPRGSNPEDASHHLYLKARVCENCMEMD
The test can be described thus: Octet.

In test [9] the target is T2, human PSMA. Description: Biacore. Background: SPR reads the build-up and loss of mass on a sensor chip optically.
In test [10] the target is T3, cynomolgus monkey PSMA. Description: Biacore.
Test [11] has as its target T4, human CD3 epsilon. The test can be described thus: Biacore.
Test [12] has as its target T5, cynomolgus monkey CD3 epsilon. The test can be described thus: Biacore.
The target of test [13] is T2, human PSMA. Description: BLI or SPR.
The target in test [14] is T3, cynomolgus monkey PSMA. The test can be described thus: BLI or SPR.
For test [15], the target named is T4, human CD3 epsilon. Description: BLI or SPR.
For test [16], the target named is T5, cynomolgus monkey CD3 epsilon. The test can be described thus: BLI or SPR.
The target in another test is PSMA on LNCaP cells (human, UniProt Q04609 1-750). The test can be described thus: cell-based or functional assay.
The target in another test is PSMA on 22Rv1 cells (human, UniProt Q04609 1-750). The test can be described thus: cell-based or functional assay.
Test [17] deals with T6, human PSMA on PSMA-transfected CHO cells (human, UniProt Q04609 1-750).
T6 construct: whole, on cells; also called Hu PSMA CHO
Description: cell binding, labeled secondary antibody. As for the experimental part:
Surface binding was detected with a labeled secondary antibody specific for the anti-CD3 scFv.
The binding affinities to both human and cyno PSMA and human and cyno CD3 epsilon were determined.

The target of test [18] is T2, human PSMA. The test can be described thus: relative binding to PSMA, uTCE.

T4 sequence (P07766 23-126 limits assumed): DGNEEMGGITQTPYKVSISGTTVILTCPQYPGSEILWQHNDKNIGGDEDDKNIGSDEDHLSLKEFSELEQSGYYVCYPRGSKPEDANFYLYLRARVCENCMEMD
T2 sequence (Q04609 44-750 limits assumed): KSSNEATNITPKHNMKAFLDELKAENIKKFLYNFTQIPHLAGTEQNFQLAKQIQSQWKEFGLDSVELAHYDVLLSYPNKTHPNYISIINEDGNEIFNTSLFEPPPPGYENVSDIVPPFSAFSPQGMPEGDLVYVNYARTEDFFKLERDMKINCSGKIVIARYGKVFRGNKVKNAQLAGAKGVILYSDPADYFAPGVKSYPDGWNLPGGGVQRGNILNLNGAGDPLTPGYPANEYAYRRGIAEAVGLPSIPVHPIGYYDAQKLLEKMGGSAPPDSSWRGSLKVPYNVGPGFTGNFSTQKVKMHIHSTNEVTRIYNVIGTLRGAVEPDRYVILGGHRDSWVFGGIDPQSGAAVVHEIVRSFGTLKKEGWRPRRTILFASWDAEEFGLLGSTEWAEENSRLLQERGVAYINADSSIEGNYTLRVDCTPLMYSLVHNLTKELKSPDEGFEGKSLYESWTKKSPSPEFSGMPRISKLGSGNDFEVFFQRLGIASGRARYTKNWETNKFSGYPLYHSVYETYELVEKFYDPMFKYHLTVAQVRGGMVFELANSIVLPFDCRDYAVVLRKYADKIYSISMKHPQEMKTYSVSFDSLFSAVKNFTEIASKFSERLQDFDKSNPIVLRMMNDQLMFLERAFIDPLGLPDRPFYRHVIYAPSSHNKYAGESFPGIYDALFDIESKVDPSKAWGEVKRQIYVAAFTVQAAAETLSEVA
T1 sequence (Q04609 44-750 limits assumed): as above
Chain of PSMA on LNCaP cells (Q04609 whole entry): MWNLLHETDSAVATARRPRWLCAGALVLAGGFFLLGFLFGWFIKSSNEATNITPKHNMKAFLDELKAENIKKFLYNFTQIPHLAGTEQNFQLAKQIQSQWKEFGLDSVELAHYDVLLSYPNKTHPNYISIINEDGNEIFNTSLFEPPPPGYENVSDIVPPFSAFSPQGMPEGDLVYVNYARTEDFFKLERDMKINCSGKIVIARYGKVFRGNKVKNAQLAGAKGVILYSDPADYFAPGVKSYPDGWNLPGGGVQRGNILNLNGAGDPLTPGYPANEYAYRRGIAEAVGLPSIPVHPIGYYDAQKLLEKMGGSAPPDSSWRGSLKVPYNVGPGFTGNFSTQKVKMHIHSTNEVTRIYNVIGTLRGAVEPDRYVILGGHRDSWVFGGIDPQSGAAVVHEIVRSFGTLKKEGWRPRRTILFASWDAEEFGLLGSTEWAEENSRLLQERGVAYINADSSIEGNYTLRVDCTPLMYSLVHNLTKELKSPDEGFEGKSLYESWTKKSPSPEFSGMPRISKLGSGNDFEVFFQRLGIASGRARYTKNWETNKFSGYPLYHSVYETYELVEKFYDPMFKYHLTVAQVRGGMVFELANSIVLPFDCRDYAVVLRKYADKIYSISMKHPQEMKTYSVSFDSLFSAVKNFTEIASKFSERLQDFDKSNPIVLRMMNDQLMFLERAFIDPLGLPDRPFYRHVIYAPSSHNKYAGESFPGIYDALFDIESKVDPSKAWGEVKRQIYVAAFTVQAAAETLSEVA
Chain of PSMA on 22Rv1 cells (Q04609 whole entry): as above
T6 sequence (Q04609 whole entry): as above

B1: uTCE of AC2591 (PSMA-VHH; CB01H01R3, CD3.23) (bispecific antibody)
chain: LTGPATSGSETPGTEVQLVESGGGSVQAGGSLSLSCVASGRTFGIYVMGWFRQAPGKEREFVAAISWSGSNRLVSDSVKGRFTISRENAKNTIYLQMNGLKPEDTANYFCAASNRLYGRTWYDFNESDYWGQGTQVTVSSGGGGSGGGSELVVTQEPSLTVSPGGTVTLTCRSSNGAVTSSNYANWVQQKPGQAPRGLIGGTNKRAPGTPARFSGSLLGGKAALTLSGVQPEDEAVYYCALWYPNLWVFGGGTKLTVLGATPPETGAETESPGETTGGSAESEPPGEGEVQLLESGGGIVQPGGSLKLSCAASGFTFNTYAMNWVRQAPGKGLEWVARIRSKYNNYATYYADSVKDRFTISRDDSKNTVYLQMNNLKTEDTAVYYCVRHENFGNSYVSWFAHWGQGTLVTVSSGTAEAASASGEAGRSANHTPAG
notes: also called PSMA.2
As for B1, the equilibrium dissociation constant (Kd) was determined as 1 nM in the test with human PSMA-Fc [1], 1 nM with human PSMA-Fc [2], 1 nM in the test with human PSMA-Fc [3] and 0.79 nM with human PSMA [4]. For the same molecule, the koff with human PSMA-Fc [2] was 0.00012 s⁻¹; with human PSMA-Fc [3], 0.000122 s⁻¹; with human PSMA [4], 8.7e-05 s⁻¹. Moreover, the kon with human PSMA-Fc [2] was found to be 120000 M⁻¹ s⁻¹; in the test with human PSMA-Fc [3], 125000 M⁻¹ s⁻¹; with human PSMA [4], 110000 M⁻¹ s⁻¹.

B2: uTCE of AC3354 (bispecific antibody)
chain: QVQLVESGGGVVQPGRSLRLSCAASGRTFGIYVMGWVRQAPGKEREFVAAISWSGSNRLVSDSVKGRFTISRDNSKNTLYLQMNSLRAEDTAVYYCAASNRLYGRTWYDFNESDYWGQGTQVTVSSGATPPETGAETESPGELVVTQEPSLTVSPGGTVTLTCRSSNGAVTSSNYANWVQQKPGQAPRGLIGGTNKRAPGTPARFSGSLLGGKAALTLSGVQPEDEAVYYCALWYPNLWVFGGGTKLTVLGATPPETGAETESPGETTGGSAESEPPGEGEVQLLESGGGIVQPGGSLKLSCAASGFTFNTYAMNWVRQAPGKGLEWVARIRSKYNNYATYYADSVKDRFTISRDDSKNTVYLQMNNLKTEDTAVYYCVRHENFGNSYVSWFAHWGQGTLVTVSS
notes: also called PSMA.5 (15 mer)
B2 yielded a Kd with human PSMA-Fc [1] of 3.5 nM. In addition, in the test with human PSMA-Fc [2], the Kd was found to be 3.5 nM, the koff stood at 0.00027 s⁻¹ and the kon came out at 77000 M⁻¹ s⁻¹.

B3: AMX-500(uTCE) (bispecific antibody)
chain: QVQLVESGGGVVQPGRSLRLSCAASGRTFGIYVWGWFRQAPGKEREFVGAMSWSGSNRKVSDSVKGRFTISRDNSKNTLYLQMNSLRAEDTAVYYCAASNKEYGRTWYDFNESDYWGQGTQVTVSSGGGGSGGGSELVVTQEPSLTVSPGGTVTLTCRSSNGAVTSSNYANWVQQKPGQAPRGLIGGTNKRAPGTPARFSGSLLGGKAALTLSGVQPEDEAVYYCALWYPNLWVFGGGTKLTVLSESATPESGPGTSPGATPESGPGTSESATPEVQLVESGGGIVQPGGSLRLSCAASGFTFSTYAMNWVRQAPGKGLEWVGRIRTKRNNYATYYADSVKGRFTISRDDSKNTVYLQMNSLKTEDTAVYYCVRHENFGNSYVSWFAHWGQGTLVTVSS
notes: also called uTCE from AC3896; AMX-500-P4 uTCE
For the molecule B3, the Kd came to 12.1 nM with human PSMA [5]; 201 nM with cynomolgus monkey PSMA [6]; 33.2 nM with human CD3 epsilon [7]; 38.8 nM in test [8]; 11.7 nM in the test with human PSMA [9]; 230 nM with cynomolgus monkey PSMA [10]. Besides, the Kd with human CD3 epsilon [11] is 12.8 nM; in test [12], 13.7 nM; with human PSMA [13], 44 nM; with cynomolgus monkey PSMA [14] it was 410 nM; with human CD3 epsilon [15] it was 28 nM; in [16], 26 nM. Besides, the koff in the test with human PSMA [13] was determined as 0.012 s⁻¹; in the test with cynomolgus monkey PSMA [14] it was 0.043 s⁻¹; with human CD3 epsilon [15] it was 0.1 s⁻¹; in test [16] it was 0.1 s⁻¹. Also, the kon with human PSMA [13] amounted to 270000 M⁻¹ s⁻¹; with cynomolgus monkey PSMA [14], 100000 M⁻¹ s⁻¹; with human CD3 epsilon [15], 4e+06 M⁻¹ s⁻¹; in [16], 5e+06 M⁻¹ s⁻¹. Further, the “in vitro cytotoxicity IC50, LNCaP cells, donor 1” value with PSMA on LNCaP cells amounted to 0.024 nM. The “in vitro cytotoxicity IC50, LNCaP cells, donor 2” value in the test with PSMA on LNCaP cells came to 0.015 nM. Also, the “in vitro cytotoxicity IC50, LNCaP cells, donor 3” value with PSMA on LNCaP cells stood at 0.016 nM. Besides, the “in vitro cytotoxicity IC50, LNCaP cells, donor 5” value with PSMA on LNCaP cells came to 0.032 nM. In addition, in the test with PSMA on 22Rv1 cells, the “in vitro cytotoxicity IC50, 22Rv1 cells, donor 1” value is 0.691 nM. Further, the “in vitro cytotoxicity IC50, 22Rv1 cells, donor 2” value with PSMA on 22Rv1 cells came to 1.34 nM. In addition, the “in vitro cytotoxicity IC50, 22Rv1 cells, donor 3” value with PSMA on 22Rv1 cells worked out at 1.3 nM. This molecule also came in with an EC50 in test [17] of 17.4 nM.

B4: uTCE from AC3928 (bispecific antibody)
chain: QVQLVESGGGVVQPGRSLRLSCAASGRTFGIYVWGWFRQAPGKEREFVGAMSWSGSNRKVSDSVKGRFTISRDNSKNTLYLQMNSLRAEDTAVYYCAASNKEYGRTWYDFNESDYWGQGTQVTVSSGGGGSGGGSELVVTQEPSLTVSPGGTVTLTCRSSNGAVTSSNYANWVQQKPGQAPRGLIGGTNKRAPGTPARFSGSLLGGKAALTLSGVQPEDEAVYYCALWYPNLWVFGGGTKLTVLSESATPESGPGTSPGATPESGPGTSESATPEVQLLESGGGIVQPGGSLKLSCAASGFTFNTYAMNWVRQAPGKGLEWVARIRSKYNNYATYYADSVKDRFTISRDDSKNTVYLQMNNLKTEDTAVYYCVRHENFGNSYVSWFAHWGQGTLVTVSS
notes: also called AMX500-P6 uTCE; PSMA.350-CD3.23
In the case of B4, the Kd was found to be 13.2 nM with human PSMA [5]; 198 nM in the test with cynomolgus monkey PSMA [6]; 43 nM with human CD3 epsilon [7]; 44.9 nM in test [8]; 19 nM with human PSMA [9]; 354 nM with cynomolgus monkey PSMA [10]. Besides, the values for the Kd (in the test with human CD3 epsilon [11]; in test [12]) were 27.3 nM and 26.6 nM, respectively.

B5: uTCE from AC3934 (bispecific antibody)
chain: QVQLVESGGGVVQPGRSLRLSCAASGRTFGIYVWGWVRQAPGKEREFVGAISWSGSNRKVSDSVKGRFTISRDNSKNTLYLQMNSLRAEDTAVYYCAASNKLYGRTWYDFNESDYWGQGTQVTVSSGGGGSGGGSELVVTQEPSLTVSPGGTVTLTCRSSNGAVTSSNYANWVQQKPGQAPRGLIGGTNKRAPGTPARFSGSLLGGKAALTLSGVQPEDEAVYYCALWYPNLWVFGGGTKLTVLSESATPESGPGTSPGATPESGPGTSESATPEVQLVESGGGIVQPGGSLRLSCAASGFTFSTYAMNWVRQAPGKGLEWVGRIRTKRNNYATYYADSVKGRFTISRDDSKNTVYLQMNSLKTEDTAVYYCVRHENFGNSYVSWFAHWGQGTLVTVSS
notes: also called AMX500-P7 uTCE; PSMA.262-CD3.228
For the molecule B5, the Kd in the test with human PSMA [5] came out at 1.6 nM; with cynomolgus monkey PSMA [6], 13.1 nM; with human CD3 epsilon [7], 26.6 nM; in test [8], 33.7 nM; with human PSMA [9], 0.5 nM; with cynomolgus monkey PSMA [10], 13 nM. In addition, the Kd in the test with human CD3 epsilon [11] is 9.83 nM; in test [12], 10.4 nM.

B6: uTCE from AC3445 (bispecific antibody)
chain: QVQLVESGGGVVQPGRSLRLSCAASGRTFGIYVMGWVRQAPGKEREFVAAISWSGSNRKVSDSVKGRFTISRDNSKNTLYLQMNSLRAEDTAVYYCAASNRLYGRTWYDFNESDYWGQGTQVTVSSGGGGSGGGSELVVTQEPSLTVSPGGTVTLTCRSSNGAVTSSNYANWVQQKPGQAPRGLIGGTNKRAPGTPARFSGSLLGGKAALTLSGVQPEDEAVYYCALWYPNLWVFGGGTKLTVLSESATPESGPGTSPGATPESGPGTSESATPEVQLLESGGGIVQPGGSLKLSCAASGFTFNTYAMNWVRQAPGKGLEWVARIRSKYNNYATYYADSVKDRFTISRDDSKNTVYLQMNNLKTEDTAVYYCVRHENFGNSYVSWFAHWGQGTLVTVSS
notes: also called PSMA.119-CD3.23
For B6, the Kd is 6.2 nM with human PSMA [5], 47.5 nM with cynomolgus monkey PSMA [6], 34.8 nM with human CD3 epsilon [7] and 40 nM in test [8].

B7: uTCE of AC2755 (bispecific antibody, V domains shown)
VH: QVQLVESGGGVVQPGRSLRLSCAASGRTFDVYAMGWVRQAPGKERELVAAINWSGSNKFHADSVKGRFTISRDNSKNTLYLQMNSLKTEDTAMYFCAASTRLYGTTWYEFNDSDYWGQGTQVTVSS
notes: TCE with CD3.23; also called VHH41
Regarding B7, in the test with human PSMA [18], the binding result is recorded as “binds”.

B8: uTCE of AC2750 (bispecific antibody, V domains shown)
VH: QVQLVESGGGVVQPGRSLRLSCAASGRTFDVYAMGWFRQAPGKGRELVAAINWSGSNKFHADSVKGRFTISRDNSKNTLYLQMNSLRPEDTAVYFCAASTRLYGTTWYEFNDSDYWGQGTQVTVSS
notes: TCE with CD3.23; also called VHH36
On to B8, for which the binding result in the test with human PSMA [18] was “binds”.

In general, Kd refers to the equilibrium constant for the complex coming apart. As usually defined, the koff is the rate constant with which the complex falls apart. A word on the kon: it is the second-order rate constant of association. By EC50 is commonly meant the concentration that produces a half-maximal response.

These data come from patent publication US20260055205A1 (published 2026).
